The source of these data is patent publication US20240101684A1 (AIMED BIO, published 2024).

The EC50 is the concentration that produces a half-maximal response. Broadly, the Kd is a measure of binding affinity in units of concentration.

In experiment [1] the target is T1, human FGFR3 IIIb recombinant protein (1264-FR-050, R&D) (human, UniProt P22607-2 23-377).
T1 construct: Bought recombinant antigen; also called rhFGFR3-IIIb; FGFR3-IIIb (Human)
T1 sequence (looked up): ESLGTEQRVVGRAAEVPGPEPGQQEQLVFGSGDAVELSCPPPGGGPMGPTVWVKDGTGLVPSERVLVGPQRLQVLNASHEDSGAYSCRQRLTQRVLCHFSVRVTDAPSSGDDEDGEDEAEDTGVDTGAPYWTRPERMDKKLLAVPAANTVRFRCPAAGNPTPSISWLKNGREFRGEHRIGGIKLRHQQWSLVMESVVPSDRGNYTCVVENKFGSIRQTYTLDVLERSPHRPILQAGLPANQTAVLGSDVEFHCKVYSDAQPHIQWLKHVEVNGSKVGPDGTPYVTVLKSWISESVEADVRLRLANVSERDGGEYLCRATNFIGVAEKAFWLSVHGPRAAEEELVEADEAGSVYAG
Put plainly: SPR (Biacore), hFGFR3-iiib immobilised on the chip, antibody injected. The procedure:
SPR analysis was performed to evaluate the binding ability of the produced antibody (IgG) to the FGFR3 subtype and subfamily. The measurement of SRP-based affinity of FGFR3 antibody candidates for the FGFR3 antigen was performed using a Biacore-T200 instrument. The same antigens as described with reference to ELISA binding capacity were directly immobilized on a CM5 biosensor chip by amine coupling to achieve approximately 300 RU. Two-fold serial dilutions were injected at a flow rate of […] at a concentration of approximately 20 nM for an association time of 180 seconds (25° C.) and then separated at the same flow rate for 180 seconds. The CM5 biosensor chip was regenerated by injecting 10 mM glycine-HCl as a buffer between each injection. Association and dissociation rates were calculated using a one-to-one Langmuir binding model. The equilibrium dissociation constant (KD) was calculated as a ratio Koff/Kon (FIG. 5, Table 6).

The target in experiment [2] is T2, FGFR3 Ig domain II with Fc tag (UniProt P22607 151-244).
T2 construct: domain: FGFR3 Ig domain II; Recombinant domain made in mammalian cells; also called domain No. 2
T2 sequence: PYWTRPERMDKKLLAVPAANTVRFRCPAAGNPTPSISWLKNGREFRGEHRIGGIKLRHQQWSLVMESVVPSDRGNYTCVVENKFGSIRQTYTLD
Put plainly: ELISA on Fc-tagged FGFR3 constructs (FGFR3 domain mapping), bar Domain#2. The procedure:
(§1) Affinity ELISA was performed to determine the binding ability of the produced antibody (IgG) to the FGFR3 antigen. A 96-well plate (4° C., overnight) was coated with […] of FGFR3 antigen and blocked with 3% skim milk (PBS) (room temperature, 1 hour). Then, the plate was treated with previously serially diluted antibody samples in duplicate and triplicate, and reacted at room temperature for 1 hour. Then, the result was washed with PBST 2 to 3 times, treated with the HRP-conjugated anti-human Fab antibody diluted in skim milk (room temperature, 1 hour), and washed again with PBST, and a color reaction (TMB substrate) was performed. Then, O.D. was measured at 450 nm.
(§2) FGFR3 is composed of three domains, so each domain (FGFR3 Ig domain I, domain II, domain III) is attached with an Fc tag to analyze the FGFR3-binding domain of the discovered antibody, and produced and purified through a mammalian cell protein expression system (FIG. 9C). Analysis of the binding ability of the antibody to the purified domain was performed in the same manner as the ELISA described above. 1 μg/ml of an antigen was coated and treated with the antibody to induce a TMB color reaction. […] However, the epitope of the comparative antibody is included in domain No. 2, which was conducted according to the present invention. […]
A general note: An ELISA detects its analyte on a solid surface through an enzyme-linked reagent.

In the next experiment the target is T3, Domain#3 (human, UniProt P22607).
T3 construct: single domain fused to human IgG1 Fc; also called FGFR3 Domain 3; FGFR3 Ig domain III with Fc tag
T3 sequence (Fc fusion chain): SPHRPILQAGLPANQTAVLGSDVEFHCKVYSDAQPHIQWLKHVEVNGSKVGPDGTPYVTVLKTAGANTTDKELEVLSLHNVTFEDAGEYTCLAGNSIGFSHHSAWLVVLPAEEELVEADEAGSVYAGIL
Put plainly: ELISA on Fc-tagged FGFR3 constructs (FGFR3 domain mapping), bar Domain#3. The method, then: as §1, §2

Experiment [3] has as its target T4, FGFR3 recombinant protein (isoform not given) (Homo sapiens (Human), UniProt P22607 23-375, limits assumed).
T4 construct: also called FGFR3 antigen
T4 sequence: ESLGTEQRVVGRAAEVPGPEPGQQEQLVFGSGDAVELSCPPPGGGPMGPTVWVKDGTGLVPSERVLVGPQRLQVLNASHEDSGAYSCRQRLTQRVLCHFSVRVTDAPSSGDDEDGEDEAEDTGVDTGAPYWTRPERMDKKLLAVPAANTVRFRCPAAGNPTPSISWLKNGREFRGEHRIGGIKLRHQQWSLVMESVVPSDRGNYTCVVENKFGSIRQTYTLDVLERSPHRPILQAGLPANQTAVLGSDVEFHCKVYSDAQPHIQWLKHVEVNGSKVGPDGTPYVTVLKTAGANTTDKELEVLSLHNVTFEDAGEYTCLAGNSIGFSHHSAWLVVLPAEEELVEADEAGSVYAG
The experiment in a line: competition ELISA (FGFR3 - FGF1 interaction), blocked ligand FGF1.

In experiment [4] the target is T1, human FGFR3 IIIb recombinant protein …. Put plainly: direct-binding ELISA on rhFGFR3-IIIb, 1' screening (row head prints IC50).
Experiment [5] has as its target T2, FGFR3 Ig domain II with Fc tag. Put plainly: FGFR3 Domain ELISA, AMB302#1, bar Domain#2. The method, then: FGFR3 is composed of three domains, so each domain (FGFR3 Ig domain I, domain II, domain III) is attached with an Fc tag to analyze the FGFR3-binding domain of the discovered antibody, and produced and purified through a mammalian cell protein expression system (FIG. 9C). Analysis of the binding ability of the antibody to the purified domain was performed in the same manner as the ELISA described above. 1 μg/ml of an antigen was coated and treated with the antibody to induce a TMB color reaction. […] However, the epitope of the comparative antibody is included in domain No. 2, which was conducted according to the present invention. In addition, ligands of FGF1 and FGF9, and FGFR3 have been reported to bind to Ig domain II and domain III of FGFR3. Based on this, competition ELISA assay was conducted. […] This supports binding of F309 antibody to the aforementioned FGFR3 Ig domain I (FIG. 9A).
The epitope domain mapping performed above was also performed on the affinity matured antibody F309 #SSM236 (hereinafter referred to as AMB302 #1.2). […] The antibody was also found to have specific binding ability to human/cyno FGFR3 (FIG. 17).

In experiment [6] the target is T1, human FGFR3 IIIb recombinant protein …. The experiment in a line: direct-binding ELISA on rhFGFR3-IIIb, 2' screening, plate 1 (row head prints IC50).
For experiment [7], the target named is T5, monkey FGFR3 recombinant protein (90313-C02H, Sino Biological) (cynomolgus monkey, UniProt A0A2K5V1U5 23-376).
T5 construct: Bought recombinant antigen; also called cynomolgus monkey FGFR3; cyno FGFR3
T5 sequence: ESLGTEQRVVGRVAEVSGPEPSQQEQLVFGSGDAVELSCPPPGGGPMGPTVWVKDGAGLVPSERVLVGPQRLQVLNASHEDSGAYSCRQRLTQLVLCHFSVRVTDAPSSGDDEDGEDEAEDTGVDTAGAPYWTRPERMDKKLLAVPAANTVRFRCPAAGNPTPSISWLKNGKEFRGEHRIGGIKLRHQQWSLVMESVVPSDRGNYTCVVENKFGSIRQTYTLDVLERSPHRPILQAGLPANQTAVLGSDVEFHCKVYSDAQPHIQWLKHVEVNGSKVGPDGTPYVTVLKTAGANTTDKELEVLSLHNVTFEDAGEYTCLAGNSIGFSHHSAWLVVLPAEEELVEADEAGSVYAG
Put plainly: SPR, table under the sensorgrams, column KD, row FGFR3 Monkey; unit inferred. For orientation: In SPR one partner is held on a chip, and binding of the other changes the refractive index at the surface.

For experiment [8], the target named is T1, human FGFR3 IIIb recombinant protein …. Put plainly: SPR, table under the sensorgrams, column KD, row FGFR3-IIIb Human; unit inferred.
Experiment [9] addresses T6, human FGFR3 IIIc recombinant protein (766-FR-050, R&D) (human, UniProt P22607 23-375).
T6 construct: Bought recombinant antigen; also called FGFR3-IIIc (Human)
T6 sequence (looked up): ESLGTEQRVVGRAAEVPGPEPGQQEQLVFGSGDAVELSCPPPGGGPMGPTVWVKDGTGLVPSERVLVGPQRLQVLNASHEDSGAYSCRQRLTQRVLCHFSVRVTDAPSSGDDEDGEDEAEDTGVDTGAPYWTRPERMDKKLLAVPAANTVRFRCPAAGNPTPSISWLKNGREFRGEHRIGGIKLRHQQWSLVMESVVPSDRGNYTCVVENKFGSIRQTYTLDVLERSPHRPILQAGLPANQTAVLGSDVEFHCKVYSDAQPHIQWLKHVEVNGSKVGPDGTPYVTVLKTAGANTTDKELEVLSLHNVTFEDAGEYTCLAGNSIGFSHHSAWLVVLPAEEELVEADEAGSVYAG
Put plainly: SPR, table under the sensorgrams, column KD, row FGFR3-IIIc Human; unit inferred.

In experiment [10] the target is T1, human FGFR3 IIIb recombinant protein …. Put plainly: direct-binding ELISA on rhFGFR3-IIIb, 2' screening, plate 2 (row head prints IC50); 2' screening, Plate2.
The target is the same in experiment [11]. Put plainly: direct-binding ELISA on rhFGFR3-IIIb, 1' screening (row head prints IC50); 1' screening.

B1: FS313 (antibody, V domains shown)
VH: EVQLLESGGGLVQPGGSLRLSCAASGFTFSGYAMSWVRQAPGKGLEWVSGINWRGATTAYADSLKGRFTISRDNSKNTLYLQMNSLRAEDTAVYYCARSDYGLFDIWGQGTLVTVSS
VL: QSVLTQPPSASGAPGQRVTISCGGNNIGSKSVHWYQQLPGTAPKLLIYQDTKRPSGVPNRFSGSKSGTSASLAISGLRSEDEADYYCQSYDSRQLVFGGGTKLTVL
notes: also called FS313 IgG
For B1, in experiment [1], the binding result is “binds”.

B2: FS306 (antibody, V domains shown)
VH: EVQLLESGGGLVQPGGSLRLSCAASRFTFSDIAMHWVRQAPGKGLEWVSTIYSSDSTYYNPSLKGRFTISRDNSKNTLYLQMNSLRAEDTAVYYCAKGVGYTTSSRFDYWGQGTLVTVSS
VL: EIVLTQGPGTLSLSPGERATLSCRASQSISSYLNWYQQKPGQAPRLLVYDASNRAAGIPDRFSGSGSGTDFTLTISRLEPEDFAVYYCQQYSSFPLTFGQGTKVEIK
notes: also called FS306 antibody; FS306 clone
With B2, the binding result (in experiment [2]; with Domain#3) was “no binding” throughout.

B3: B701 (Vofatamab, Rainier Therapeutics) (antibody, V domains shown)
VH: EVQLVESGGGLVQPGGSLRLSCAASGFTFTSTGISWVRQAPGKGLEWVGRIYPTSGSTNYADSVKGRFTISADTSKNTAYLQMNSLRAEDTAVYYCARTYGIYDLYVDYTEYVMDYWGQGTLVTVSS
VL: DIQMTQSPSSLSASVGDRVTITCRASQDVDTSLAWYKQKPGKAPKLLIYSASFLYSGVPSRFSGSGSGTDFTLTISSLQPEDFATYYCQQSTGHPQTFGQGTKVEIK
In the case of B3, the “IC50 (read off the curve)” value in [3] was ~3 nM. Also, the EC50 in [4] is 0.417 nM.

B4: F309 (antibody, V domains shown)
VH: EVQLLESGGGLVQPGGSLRLSCAASGFTFSSYDMSWVRQAPGKGLEWVSGIYSGDGSIYYADSVKGRFTISRDNSKNTLYLQMNSLRAEDTAVYYCAKDAPTNEMSRFDYWGQGTLVTVSS
VL: QSVLTQPPSASGTPGQRVTISCSGSSSNIGNNYVSWYQQLPGTAPKLLIYADSKRPSGVPDRFSGSKSGTSASLAISGLRSEDEADYYCASWDYSLSGYVFGGGTKLTVL
notes: also called F309 antibody; F309 clone
In the case of B4, the binding result (in experiment [5]; with Domain#3) was “no binding” throughout. Also, the EC50 came to 0.67 nM in experiment [4], 80.4 nM in [6] and 67 nM in [10]. Besides, the Kd in experiment [7] turned out to be 32.8 nM; in [8], 10.4 nM; in experiment [9], 11.1 nM.

B5: F309#SSM001 (antibody, V domains shown)
VH: EVQLLESGGGLVQPGGSLRLSCAASGFTFSSYDMSWVRQAPGKGLEWVSGIYSGDGSIYYADSVKGRFTISRDNSKNTLYLQMNSLRAEDTAVYYCAKDYPTNEMSRFDYWGQGTLVTVSS
VL: QSVLTQPPSASGTPGQRVTISCSGSSSNIGNNYVSWYQQLPGTAPKLLIYADSKRPSGVPDRFSGSKSGTSASLAISGLRSEDEADYYCASWDYSLSGYVFGGGTKLTVL
In the case of B5, the EC50 in [11] came to 2190 nM.
